Data: paper PMC9564178 (Cells, 2022)

Experiments:
[1] = target: T1, human recombinant TPPP1 (hexaHis fusion) (human, UniProt O94811 1-219); test: ELISA; TPPP3 immobilised (5 μg/mL, PBS); recombinant TPPP1 added at different concentrations, without HeLa extract; detected by monoclonal TPPP1 antibody; apparent Kd, single-site hyperbola; conditions: both partners purified
T1 construct: human TPPP1 (Tubulin Polymerization Promoting Protein, TPPP/p25), UniProtKB O94811, 219 amino acids; probably the whole 219-residue protein; also called TPPP/p25; source: E. coli BL21 (DE3), isolated on a HIS-Select Cartridge
T1 sequence (O94811 whole entry, the tested form may be a part): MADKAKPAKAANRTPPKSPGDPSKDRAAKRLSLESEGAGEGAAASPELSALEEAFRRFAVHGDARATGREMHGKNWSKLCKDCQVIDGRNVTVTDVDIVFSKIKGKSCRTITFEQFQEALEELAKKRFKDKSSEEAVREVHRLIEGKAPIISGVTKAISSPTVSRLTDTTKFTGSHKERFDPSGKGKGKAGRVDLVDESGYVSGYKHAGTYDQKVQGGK

[2] = target: T1, human recombinant TPPP1 (hexaHis fusion); test: ELISA; TPPP3 immobilised; recombinant TPPP1 added at different concentrations with extract of non-transfected HeLa cells (0.32 mg/mL); detected by monoclonal TPPP1 antibody; apparent Kd; conditions: both partners purified

Kd [1]: 6.53 nM
Kd [2]: 47.7 nM
B1: human recombinant TPPP3 (hexaHis fusion) (natural protein)
chain: AGLEESFRKFAIHGDPKASGQEMNGKNWAKLCKDCKVADGKSVTGTDVDIVFSKVKGKSARVINYEEFKKALEELATKRFKGKSKEEAFDAICQLVAGKEPANVGVTKAKTGGAVDRLTDTSRYTGSHKERFDESGKGKGIAGRQDILDDSGYVSAYKNAGTYDAKVKK
notes: human TPPP3 (Tubulin Polymerization Promoting Protein 3), UniProtKB Q9BW30, 176 amino acids; probably the whole 176-residue protein; also called TPPP/p20; source: E. coli BL21 (DE3), isolated on a HIS-Select Cartridge
